Test results reported in patent publication US20130078251A1 (Hoffmann-La Roche, published 2013).

T1: recombinant D3 domain of MCSP (UniProt Q6UVK1 1582-2224, limits assumed)
T1 construct: domain: D3 domain; also called MCSP D3
T1 sequence (looked up): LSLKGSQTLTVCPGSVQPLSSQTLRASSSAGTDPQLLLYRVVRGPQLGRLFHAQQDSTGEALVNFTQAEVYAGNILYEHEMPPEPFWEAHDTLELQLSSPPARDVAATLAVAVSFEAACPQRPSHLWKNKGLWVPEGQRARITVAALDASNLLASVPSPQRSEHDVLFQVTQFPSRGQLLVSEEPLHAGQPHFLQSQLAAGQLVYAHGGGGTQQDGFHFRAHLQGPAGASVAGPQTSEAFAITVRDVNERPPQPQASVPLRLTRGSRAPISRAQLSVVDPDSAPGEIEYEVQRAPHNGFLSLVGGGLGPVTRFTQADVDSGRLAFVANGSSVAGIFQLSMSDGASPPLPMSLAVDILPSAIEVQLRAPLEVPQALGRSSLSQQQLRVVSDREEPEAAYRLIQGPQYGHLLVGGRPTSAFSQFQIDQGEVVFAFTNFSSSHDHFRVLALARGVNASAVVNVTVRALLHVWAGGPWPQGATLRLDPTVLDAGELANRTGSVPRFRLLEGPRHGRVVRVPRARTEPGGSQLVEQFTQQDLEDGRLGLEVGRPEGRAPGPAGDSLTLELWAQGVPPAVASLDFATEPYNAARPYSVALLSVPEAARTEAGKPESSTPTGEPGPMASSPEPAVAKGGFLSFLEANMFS

T2: cynomolgus MCSP D3 domain expression construct (cynomolgus, UniProt Q6UVK1 1582-2224 (human entry), limits assumed)
T2 construct: also called cynomolgus construct; cynomolgus antigen
T2 chain: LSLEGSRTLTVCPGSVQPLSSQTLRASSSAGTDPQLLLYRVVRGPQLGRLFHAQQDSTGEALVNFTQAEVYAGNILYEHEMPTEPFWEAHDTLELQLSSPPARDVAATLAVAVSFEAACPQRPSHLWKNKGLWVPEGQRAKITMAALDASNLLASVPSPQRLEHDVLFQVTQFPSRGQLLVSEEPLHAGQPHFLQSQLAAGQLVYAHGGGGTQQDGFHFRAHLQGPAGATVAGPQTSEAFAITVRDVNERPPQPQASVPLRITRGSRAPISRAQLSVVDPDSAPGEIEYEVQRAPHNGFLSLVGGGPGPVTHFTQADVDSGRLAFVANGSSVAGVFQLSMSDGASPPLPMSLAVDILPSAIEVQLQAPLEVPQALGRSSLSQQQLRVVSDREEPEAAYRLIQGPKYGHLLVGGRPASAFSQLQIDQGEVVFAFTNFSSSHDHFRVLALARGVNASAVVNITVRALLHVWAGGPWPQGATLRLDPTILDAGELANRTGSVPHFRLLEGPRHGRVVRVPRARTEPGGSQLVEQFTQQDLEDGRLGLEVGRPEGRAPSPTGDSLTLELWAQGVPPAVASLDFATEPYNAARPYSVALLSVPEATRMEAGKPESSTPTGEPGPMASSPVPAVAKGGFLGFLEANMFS

T3: human MCSP D3 domain expression construct (human, UniProt Q6UVK1 1582-2224, limits assumed)
T3 construct: Built like the cynomolgus construct (signal peptide, N-terminal FLAG-tag); also called corresponding human expression construct; human counterpart
T3 sequence: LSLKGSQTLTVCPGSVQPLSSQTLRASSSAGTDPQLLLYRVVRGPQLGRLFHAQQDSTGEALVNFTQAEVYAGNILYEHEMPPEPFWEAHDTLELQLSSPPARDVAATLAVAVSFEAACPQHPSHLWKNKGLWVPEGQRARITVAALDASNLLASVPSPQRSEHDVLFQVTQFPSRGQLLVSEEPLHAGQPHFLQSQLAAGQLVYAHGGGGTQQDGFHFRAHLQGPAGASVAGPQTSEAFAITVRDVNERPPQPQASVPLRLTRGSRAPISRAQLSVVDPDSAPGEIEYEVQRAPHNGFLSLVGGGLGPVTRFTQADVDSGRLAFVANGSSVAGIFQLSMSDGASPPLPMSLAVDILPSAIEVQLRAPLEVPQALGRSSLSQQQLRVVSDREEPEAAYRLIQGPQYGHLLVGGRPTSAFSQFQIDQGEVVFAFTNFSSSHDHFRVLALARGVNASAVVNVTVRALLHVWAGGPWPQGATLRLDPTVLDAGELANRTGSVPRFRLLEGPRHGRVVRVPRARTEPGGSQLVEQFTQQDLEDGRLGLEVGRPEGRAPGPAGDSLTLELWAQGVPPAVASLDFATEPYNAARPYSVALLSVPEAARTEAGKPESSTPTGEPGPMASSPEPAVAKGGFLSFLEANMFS

T4: Construct 1, CSPG repeat 15 of human MCSP with the original transmembrane region (human, UniProt Q6UVK1 2044-2246)
T4 construct: Expressed on HEK-EBNA cells; also called construct including only the MCSP repeat 15 and the natural transmembrane domain
T4 sequence: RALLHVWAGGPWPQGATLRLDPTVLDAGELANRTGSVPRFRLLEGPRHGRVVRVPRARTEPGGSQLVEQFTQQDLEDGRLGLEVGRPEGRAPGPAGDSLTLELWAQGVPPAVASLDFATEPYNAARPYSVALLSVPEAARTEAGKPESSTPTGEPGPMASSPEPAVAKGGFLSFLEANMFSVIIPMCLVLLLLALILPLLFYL

T5: Construct 4, CSPG repeat 12-15 of human MCSP with the original transmembrane region (human, UniProt Q6UVK1 1702-2246)
T5 construct: Expressed on HEK-EBNA cells
T5 sequence: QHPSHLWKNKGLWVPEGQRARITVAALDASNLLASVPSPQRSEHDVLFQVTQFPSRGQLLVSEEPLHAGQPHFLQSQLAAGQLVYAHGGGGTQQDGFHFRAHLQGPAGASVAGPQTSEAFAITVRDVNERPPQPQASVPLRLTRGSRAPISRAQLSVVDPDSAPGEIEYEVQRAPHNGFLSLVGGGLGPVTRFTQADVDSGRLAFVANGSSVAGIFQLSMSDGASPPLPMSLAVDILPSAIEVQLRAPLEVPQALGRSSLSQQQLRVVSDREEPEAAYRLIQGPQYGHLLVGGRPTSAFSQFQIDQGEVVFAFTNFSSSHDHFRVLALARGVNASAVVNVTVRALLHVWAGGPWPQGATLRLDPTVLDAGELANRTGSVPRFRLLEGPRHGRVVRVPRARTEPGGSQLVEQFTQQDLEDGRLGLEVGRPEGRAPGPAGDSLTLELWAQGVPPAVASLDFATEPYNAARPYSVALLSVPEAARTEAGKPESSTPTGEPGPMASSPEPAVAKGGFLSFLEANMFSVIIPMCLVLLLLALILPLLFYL


Experiments:
[1] = target: T1, recombinant D3 domain of MCSP; assay: Biacore T100, antibody amine-coupled on CM5 chip, MCSP D3 as analyte, 1:1 model, 25 °C
Protocol: (§1) The monovalent binding affinities for the chimeric LC007 and the humanized variant M4-3 ML2 were determined using a Biacore assay. Briefly, the antibodies were chemically immobilized on a CM5 chip (Biacore) via amine-coupling (activation with EDC-NHS, coupling of 5000 RU for each antibody, deactivation with ethanolamine). The recombinant D3 domain of MCSP was used as analyte. The experiment was performed at 25° and 37° in HBS-EP+ running buffer on a Biacore T100. […] The surface was regenerated between injections with 10 mM glycine pH 2 for 30 s. The sensorgrams were fitted with the 1:1 binding model (with RI=0 and Rmax=local) to determine the Kd.

[2] = target: T1, recombinant D3 domain of MCSP; assay: Biacore T100, antibody amine-coupled on CM5 chip, MCSP D3 as analyte, 1:1 model, 37 °C
Protocol: as §1

[3] = target: T6, human MCSP (melanoma chondroitin sulfate proteoglycan) on melanoma cells (human, UniProt Q6UVK1 30-2322); assay: FACS titration on A375 melanoma cells, FITC anti-human IgG Fc secondary antibody
T6 construct: Endogenous MCSP of human melanoma cell lines; also called surface MCSP; native form of MCSP
Protocol: (§2) Binding activity was determined by the following method. Target cells were detached from culture flask with cell dissociation buffer, counted and checked for viability. Cells were resuspended and adjusted to 1.111×10⁶ (viable) cells/ml in PBS-0.1% BSA. 180 μl of this suspension were transferred to each well (200,000 cells/well) in a round bottom 96-well-plate, centrifuged for 4 min, at 400 g, and resuspended. 20 μl of antibody dilutions in PBS-0.1% BSA (from 10 μg/ml to 0.002 μg/ml) were added to each well. The samples were centrifuged for 4 min, at 400 g, and resuspended. Secondary antibody, FITC-conjugated AffiniPure F(ab′)2 fragment goat anti-human IgG Fcg Fragment Specific (Jackson Immuno Research Lab #109-096-098)), was added and the sample centrifuged for 4 min, at 400 g, and resuspended. Fluorescence was measured in flow cytometer (e.g. FACS Canto II). Antibody 9.2.27, described in Morgan A C Jr, Galloway D R, Reisfeld R A. Hybridoma. 1981; 1(1):27-36.; GenBank Accession Numbers: GI:20797193 and GI:20797189 for light and heavy chain respectively, was used as a reference (FIG. 2). Human melanoma cell-lines Colo38, A2058, and A375 were used. Giacomini et al. 1985 (for Colo38). Marquardt H, Todaro G J. J Biol Chem. 1982 May 10; 257(9):5220-5 (for A2058). Geiser M, Schultz D, Le Cardinal A, Voshol H, García-Echeverría C. Cancer Res. 1999 Feb. 15; 59(4):905-10 (for A375).

[4] = target: T6, human MCSP (melanoma chondroitin …); assay: FACS titration on Colo38 melanoma cells, FITC anti-human IgG Fc secondary antibody
Protocol: as §2

[5] = target: T2, cynomolgus MCSP D3 domain expression …; assay: flow cytometry titration on HEK-EBNA cells electroporated with the FLAG-tagged D3 domain construct
Source text: (§3) An expression construct was generated that included the C-terminal part of the cynomolgus MCSP protein, a signal peptide for secretion and a N-terminal FLAG-tag (SEQ ID NO: 8) to test for crossreactivity towards the cynomolgus antigen. This domain was referred to as the D3 domain Tillet, F. et. Al, J. Biol. Chem. 272: 10769-10776 (1997). A similar construct was done for the human counterpart (SEQ ID NO: 9). An expression plasmid encoding for these two construct was electroporated into HEK-EBNA cells, and expression was confirmed with an anti-FLAG antibody. Binding of LC007 antibody was then tested by flow cytometry.

[6] = target: T3, human MCSP D3 domain expression …; assay: as above
Source text: as §3

[7] = target: T4, Construct 1, CSPG repeat 15 of human …; assay: FACS titration on HEK-EBNA cells transfected with the construct
[8] = target: T5, Construct 4, CSPG repeat 12-15 of human …; assay: as above
[9] = target: T6, human MCSP (melanoma chondroitin …); assay: FACS titration on A2058 melanoma cells, FITC anti-human IgG Fc secondary antibody
Protocol: as §2

T6 sequence (Q6UVK1 30-2322 limits assumed): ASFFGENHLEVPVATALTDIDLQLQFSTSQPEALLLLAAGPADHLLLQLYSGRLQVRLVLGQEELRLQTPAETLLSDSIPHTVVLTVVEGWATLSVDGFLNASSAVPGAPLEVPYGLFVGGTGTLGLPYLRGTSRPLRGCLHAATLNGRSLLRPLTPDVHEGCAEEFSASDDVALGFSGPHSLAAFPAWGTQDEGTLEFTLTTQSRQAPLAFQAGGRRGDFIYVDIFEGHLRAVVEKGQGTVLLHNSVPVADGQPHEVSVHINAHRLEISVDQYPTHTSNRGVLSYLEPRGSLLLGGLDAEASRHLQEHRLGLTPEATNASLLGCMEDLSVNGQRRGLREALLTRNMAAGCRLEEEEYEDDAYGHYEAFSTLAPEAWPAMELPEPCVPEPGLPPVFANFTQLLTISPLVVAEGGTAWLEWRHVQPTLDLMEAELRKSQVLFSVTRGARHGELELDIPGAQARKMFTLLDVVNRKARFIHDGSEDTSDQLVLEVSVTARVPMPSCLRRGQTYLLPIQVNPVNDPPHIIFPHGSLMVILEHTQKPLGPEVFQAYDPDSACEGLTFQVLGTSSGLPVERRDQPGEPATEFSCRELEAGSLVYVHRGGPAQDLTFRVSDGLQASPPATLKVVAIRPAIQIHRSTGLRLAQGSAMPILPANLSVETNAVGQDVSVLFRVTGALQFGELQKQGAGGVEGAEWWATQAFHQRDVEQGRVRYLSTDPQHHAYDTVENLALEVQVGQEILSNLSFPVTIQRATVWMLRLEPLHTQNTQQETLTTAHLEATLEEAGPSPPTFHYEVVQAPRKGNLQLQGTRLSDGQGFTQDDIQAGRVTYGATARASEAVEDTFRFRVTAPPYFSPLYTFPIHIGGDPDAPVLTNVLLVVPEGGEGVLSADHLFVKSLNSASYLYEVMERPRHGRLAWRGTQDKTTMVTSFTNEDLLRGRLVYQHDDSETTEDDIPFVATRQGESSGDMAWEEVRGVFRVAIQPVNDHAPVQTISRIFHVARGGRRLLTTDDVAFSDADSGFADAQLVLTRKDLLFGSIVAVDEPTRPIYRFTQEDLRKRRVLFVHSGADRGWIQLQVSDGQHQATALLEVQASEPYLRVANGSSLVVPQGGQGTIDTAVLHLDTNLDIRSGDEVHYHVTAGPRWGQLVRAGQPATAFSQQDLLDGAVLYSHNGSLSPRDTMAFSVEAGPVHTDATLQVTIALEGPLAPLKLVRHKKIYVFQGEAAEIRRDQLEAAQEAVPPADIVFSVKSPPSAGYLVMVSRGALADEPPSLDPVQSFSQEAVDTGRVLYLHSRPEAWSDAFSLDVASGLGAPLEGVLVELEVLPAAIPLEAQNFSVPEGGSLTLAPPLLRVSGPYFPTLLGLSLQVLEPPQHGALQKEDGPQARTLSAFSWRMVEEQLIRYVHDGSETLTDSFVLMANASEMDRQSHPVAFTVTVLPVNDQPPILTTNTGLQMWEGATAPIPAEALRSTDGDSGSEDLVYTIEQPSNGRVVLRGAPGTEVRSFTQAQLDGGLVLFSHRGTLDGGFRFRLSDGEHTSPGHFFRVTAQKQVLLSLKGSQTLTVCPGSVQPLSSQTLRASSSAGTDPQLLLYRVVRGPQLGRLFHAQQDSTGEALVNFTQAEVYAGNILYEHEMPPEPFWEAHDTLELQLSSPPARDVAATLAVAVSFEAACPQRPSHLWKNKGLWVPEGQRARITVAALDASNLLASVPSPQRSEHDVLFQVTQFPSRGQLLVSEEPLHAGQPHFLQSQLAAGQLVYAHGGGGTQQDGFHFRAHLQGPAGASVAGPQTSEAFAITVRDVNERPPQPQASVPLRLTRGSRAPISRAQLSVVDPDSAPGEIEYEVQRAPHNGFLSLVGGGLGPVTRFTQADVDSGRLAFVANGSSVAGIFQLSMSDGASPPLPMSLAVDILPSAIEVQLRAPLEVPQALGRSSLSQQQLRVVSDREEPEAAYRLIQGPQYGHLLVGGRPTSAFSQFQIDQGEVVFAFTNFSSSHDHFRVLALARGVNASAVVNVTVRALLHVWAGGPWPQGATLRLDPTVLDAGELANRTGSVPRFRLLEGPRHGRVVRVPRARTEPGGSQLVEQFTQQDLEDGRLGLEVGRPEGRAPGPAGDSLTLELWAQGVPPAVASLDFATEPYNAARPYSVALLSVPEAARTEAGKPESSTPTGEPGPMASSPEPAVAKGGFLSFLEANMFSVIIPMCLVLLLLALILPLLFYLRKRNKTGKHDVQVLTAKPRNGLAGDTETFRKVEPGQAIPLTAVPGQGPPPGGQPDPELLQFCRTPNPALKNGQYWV

Kd [1] | Kd [2] | EC50 (read off the curve) [3] | EC50 (read off the curve) [4] | EC50 (read off the curve) [5] | EC50 (read off the curve) [6] | binding result [7] | EC50 (read off the curve) [8] | EC50 (read off the curve) [9] | Binder
11.4 nM | 16.6 nM |  |  |  |  |  |  |  | humanized variant M4-3 ML2 (antibody, human IgG1, kappa, V domains shown, also called M4-3 ML2 antibody) VH: QVQLQESGPGLVKPSQTLSLTCTVSGGSITSGYYWNWIRQHPGKGLEWIGYITYDGSNNYNPSLKSRVTISRDTSKNQFSLKLSSVTAADTAVYYCADFDYWGQGTLVTVSS VL: DIQMTQSPSSLSASVGDRVTITCRASQGIRNYLNWYQQKPGKAPKLLIYYTSSLHSGVPSRFSGSGSGTDFTLTISSLQPEDFATYYCQQYSKLPWTFGQGTKVEIKR
9.8 nM | 10.8 nM | ~0.05 µg/mL | ~0.05 µg/mL | ~0.1 µg/mL | ~0.08 µg/mL | no binding (tested: 5 ug/ml) | ~0.3 µg/mL | ~0.03 µg/mL | chimeric antibody LC007 (antibody, human IgG1, kappa, V domains shown, also called LC007 antibody; chimeric LC007) VH: EVQLQESGPGLVKPSQSLSLTCSVTGYSITSGYYWNWIRQFPGNKLEWMGYITYDGSNNYNPSLKNRISITRDTSKNQFFLKLNSVTTEDTATYYCADFDYWGQGTTLTVSS VL: DIVLTQSPSSLSASLGDRVTISCSASQGIRNYLNWYQQRPDGTVKLLIYYTSSLHSGVPSRFSGSGSGTDYSLTISNLEPEDIATYYCQQYSKLPWTFGGGTKLEIKR
